Source: PMC5261807 (2017)
Non-standard residues stand in square brackets, D forms with d. Primed or numbered codes have the meaning given here. No end group written: not given here. Me2a″ = asymmetric dimethylarginine (Rme2a); Me2s″ = symmetric dimethylarginine (Rme2s); Arg(Me2a) = CN(C)C(=N)NCCC[C@H](N)C(=O)O; Lys(Me3) = C[N+](C)(C)CCCC[C@H](N)C(=O)O; Arg(Me2s) = CN=C(NC)NCCC[C@H](N)C(=O)O; pT = C[C@@H](OP(=O)(O)O)[C@H](N)C(=O)O; Me2a = asymmetric dimethyl (on Arg); Lys(Me2) = CN(C)CCCC[C@H](N)C(=O)O; Me2s = symmetric dimethyl (on Arg); pS = N[C@@H](COP(=O)(O)O)C(=O)O; Lys(Me) = CNCCCC[C@H](N)C(=O)O; Me3″ = trimethyl lysine (Kme3); Me3 = trimethyl (on Lys); Me2 = dimethyl (on Lys)

T1: Bdf1 bromodomain 2 (GST-tagged, WT) (Saccharomyces cerevisiae (strain ATCC …, UniProt P35817))
T1 chain: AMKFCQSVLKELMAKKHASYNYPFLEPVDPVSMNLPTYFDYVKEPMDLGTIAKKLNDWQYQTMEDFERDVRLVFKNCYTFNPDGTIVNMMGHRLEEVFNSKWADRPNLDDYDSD

T2: Bdf1 bromodomain 1 (GST-tagged, WT) (Saccharomyces cerevisiae (strain ATCC …, UniProt P35817))
T2 chain: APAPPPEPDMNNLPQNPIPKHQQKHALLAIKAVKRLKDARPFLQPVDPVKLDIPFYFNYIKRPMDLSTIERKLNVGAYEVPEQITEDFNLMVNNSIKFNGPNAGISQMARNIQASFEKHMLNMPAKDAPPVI


Target: T1, Bdf1 bromodomain 2 (GST-tagged, WT)
Test: histone peptide array probed with recombinant GST-bromodomain, signal normalised to myc peptide control

Binder	binding score
PRKQLATKAAR(Me2a″)K(Me3″)[pS]APATGG	0
PRKQLATKAA[Arg(Me2a)]KSAPATGG	0
ARTKQTARKSTGGKAPRKQ (A R T K Q T A R Kac S pT G G K A P R K Q)	0
[pS]GRGK(Ac)QGGK(Ac)ARAKAKSRSS	0.162
ARTK(Ac)QTAR(Me2a)K(Me2)STGGKAPRKQ	0.00915
A[Arg(Me2a)]TK(Me)QTARKSTGGKAPRKQ	0
ARTKQTARKSTGGKAPRKQ (A R T Kac Q T A Rme2a Kac S T G G K A P R K Q)	0.0821
ART[Lys(Me3)]QTA[Arg(Me2a)][Lys(Me2)]STGGKAPRKQ	0
PRKQLATKAAR[Lys(Me3)]SAPATGG	0
RRKKKRRKKKRKRKKRK (R Rme2s K Kme1 Kac R Rme2a Kme2 K Kme3 R Kme1 Rme2s K Kac R K) [background 02]	0.006
[pS]GRGK(Ac)QGGK(Ac)ARAK(Ac)AKSRSS	0.388
ARTKQTARKSTGGKAPRKQ (A R T K Q T A R K pS pT G G K A P R K Q)	0
PDPAK(Ac)SAPAPKKGSK(Ac)KAVT	0
ARTKQTARKSTGGKAPRKQ (A R T K Q T A R Kme2 S pT G G K A P R K Q)	0
A[Arg(Me2a)]T[Lys(Me2)]QTA[Arg(Me2a)][Lys(Me3)]STGGKAPRKQ	0
ARTKQTARKSTGGKAPRKQ (A Rme2s T Kme2 Q T A Rme2a Kme2 S T G G K A P R K Q)	0
SGRGKGGKGLGKGGAKRHR (S G R G K G G K G L G K G G A Kac R H R)	0
PDPAKSAPAPKKG[pS]KKAVT	0
SGRGKQGGK(Ac)ARAKAKSRSS	0.00797
ARTKQTARKSTGGKAPRKQ (A R T Kme2 Q T A Rme2s Kme2 S T G G K A P R K Q)	0.00325
AR[pT]KQTARKSTGGKAPRKQ	0.0062
ARTKQTARKSTGGKAPRKQ (A Rme2a T Kac Q T A Rme2a Kme2 S T G G K A P R K Q)	0.0105
PRKQLATKAAR(Me2a″)K(Ac)[pS]APATGG	0
ARTKQTARKSTGGKAPRKQ (A Rme2s T Kme3 Q T A Rme2a Kac S T G G K A P R K Q)	0.00305
PRKQLATKAA[Arg(Me2s)][Lys(Me2)]SAPATGG	0
ARTK(Ac)QTAR(Me2s″)K(Ac)STGGKAPRKQ	0.00915

Binder	binding score
ARTKQTARKSTGGKAPRKQ (A Rme2s T Kac Q T A Rme2a Kac S T G G K A P R K Q)	0.0894
ARTKQTA[Arg(Me2a)][Lys(Me)]S[pT]GGKAPRKQ	0
ARTKQTARKSTGGKAPRKQ (A Rme2a T Kme3 Q T A Rme2s Kme3 S T G G K A P R K Q)	0
SGRGKGGKGLGKGGAKRHR (S G Rme2s G K G G Kac G L G K G G A K R H R)	0.0294
ARTKQTARKSTGGKAPRKQ (A R T Kme2 Q T A Rme2a Kac S T G G K A P R K Q)	0.00915
A[Arg(Me2a)]T[Lys(Me3)]QTAR[Lys(Me2)]STGGKAPRKQ	0.00443
PDPAK(Ac)SAPAPKKG[pS]K(Ac)KAVT	0.168
ARTKQTARKSTGGKAPRKQ (A Rme2s T Kme2 Q T A R Kme1 S T G G K A P R K Q)	0.00895
ARTKQTARKSTGGKAPRKQ (A Rme2s T Kme3 Q T A Rme2s Kme1 S T G G K A P R K Q)	0.00187
AR(Me2s″)TK(Me)QTARK(Me)STGGKAPRKQ	0.0105
[pS]GRGKQGGKARAKAKSRSS	0.00502
ARTKQTARKSTGGKAPRKQ (A R T Kme2 Q T A Rme2a Kme2 S T G G K A P R K Q)	0.000885
PDPAK(Ac)SAPAPKK(Ac)GSK(Ac)KAVT	0.329
A[Arg(Me2a)]TK(Ac)QTA[Arg(Me2s)][Lys(Me2)]STGGKAPRKQ	0.00482
A[Arg(Me2a)]T[Lys(Me2)]QTARK(Ac)STGGKAPRKQ	0.00108
SGRGK(Ac)QGGKARAK(Ac)AKSRSS	0.127
A[Arg(Me2s)]T[Lys(Me)]QTA[Arg(Me2a)][Lys(Me)]STGGKAPRKQ	0
ARTKQTARKSTGGKAPRKQ (A R T K Q T A R Kme1 pS T G G K A P R K Q)	0
ARTKQTARKSTGGKAPRKQ (A R T Kac Q T A Rme2s Kme2 S T G G K A P R K Q)	0.0133
A[Arg(Me2a)][pT]K(Ac)QTARKSTGGKAPRKQ	0.0394
ARTKQTARKSTGGKAPRKQ (A Rme2s T Kme2 Q T A Rme2a Kme3 S T G G K A P R K Q)	0.00797
ARTKQTARKSTGGKAPRKQ (A Rme2a T Kme3 Q T A Rme2s Kme2 S T G G K A P R K Q)	0
ARTK(Me)QTARKSTGGKAPRKQ	0.00305
AR(Me2a)TK(Me)QTAR(Me2s)K(Me3)STGGKAPRKQ	0
ARTKQTARKSTGGKAPRKQ (A Rme2a T Kac Q T A Rme2s Kme1 S T G G K A P R K Q)	0

Target: T2, Bdf1 bromodomain 1 (GST-tagged, WT)
Test: as above

Binder	binding score
PRKQLATKAAR(Me2a″)K(Me3″)[pS]APATGG	0
PRKQLATKAA[Arg(Me2a)]KSAPATGG	0
ARTKQTARKSTGGKAPRKQ (A R T K Q T A R Kac S pT G G K A P R K Q)	0
[pS]GRGK(Ac)QGGK(Ac)ARAKAKSRSS	0.00663
ARTK(Ac)QTAR(Me2a)K(Me2)STGGKAPRKQ	0.00179
A[Arg(Me2a)]TK(Me)QTARKSTGGKAPRKQ	0
ARTKQTARKSTGGKAPRKQ (A R T Kac Q T A Rme2a Kac S T G G K A P R K Q)	0.0576
ART[Lys(Me3)]QTA[Arg(Me2a)][Lys(Me2)]STGGKAPRKQ	0.000538
PRKQLATKAAR[Lys(Me3)]SAPATGG	0
RRKKKRRKKKRKRKKRK (R Rme2s K Kme1 Kac R Rme2a Kme2 K Kme3 R Kme1 Rme2s K Kac R K) [background 02]	0.00538
[pS]GRGK(Ac)QGGK(Ac)ARAK(Ac)AKSRSS	0.0949
ARTKQTARKSTGGKAPRKQ (A R T K Q T A R K pS pT G G K A P R K Q)	0.00681
PDPAK(Ac)SAPAPKKGSK(Ac)KAVT	0.00143
ARTKQTARKSTGGKAPRKQ (A R T K Q T A R Kme2 S pT G G K A P R K Q)	0
A[Arg(Me2a)]T[Lys(Me2)]QTA[Arg(Me2a)][Lys(Me3)]STGGKAPRKQ	0
ARTKQTARKSTGGKAPRKQ (A Rme2s T Kme2 Q T A Rme2a Kme2 S T G G K A P R K Q)	0
SGRGKGGKGLGKGGAKRHR (S G R G K G G K G L G K G G A Kac R H R)	0
PDPAKSAPAPKKG[pS]KKAVT	0.00699
SGRGKQGGK(Ac)ARAKAKSRSS	0.00717
ARTKQTARKSTGGKAPRKQ (A R T Kme2 Q T A Rme2s Kme2 S T G G K A P R K Q)	0
AR[pT]KQTARKSTGGKAPRKQ	0
ARTKQTARKSTGGKAPRKQ (A Rme2a T Kac Q T A Rme2a Kme2 S T G G K A P R K Q)	0.00143
PRKQLATKAAR(Me2a″)K(Ac)[pS]APATGG	0.00143
ARTKQTARKSTGGKAPRKQ (A Rme2s T Kme3 Q T A Rme2a Kac S T G G K A P R K Q)	0.0136
PRKQLATKAA[Arg(Me2s)][Lys(Me2)]SAPATGG	0
ARTK(Ac)QTAR(Me2s″)K(Ac)STGGKAPRKQ	0.0672

Binder	binding score
ARTKQTARKSTGGKAPRKQ (A Rme2s T Kac Q T A Rme2a Kac S T G G K A P R K Q)	0.0545
ARTKQTA[Arg(Me2a)][Lys(Me)]S[pT]GGKAPRKQ	0
ARTKQTARKSTGGKAPRKQ (A Rme2a T Kme3 Q T A Rme2s Kme3 S T G G K A P R K Q)	0
SGRGKGGKGLGKGGAKRHR (S G Rme2s G K G G Kac G L G K G G A K R H R)	0
ARTKQTARKSTGGKAPRKQ (A R T Kme2 Q T A Rme2a Kac S T G G K A P R K Q)	0.0228
A[Arg(Me2a)]T[Lys(Me3)]QTAR[Lys(Me2)]STGGKAPRKQ	0
PDPAK(Ac)SAPAPKKG[pS]K(Ac)KAVT	0
ARTKQTARKSTGGKAPRKQ (A Rme2s T Kme2 Q T A R Kme1 S T G G K A P R K Q)	0
ARTKQTARKSTGGKAPRKQ (A Rme2s T Kme3 Q T A Rme2s Kme1 S T G G K A P R K Q)	0.00161
AR(Me2s″)TK(Me)QTARK(Me)STGGKAPRKQ	0
[pS]GRGKQGGKARAKAKSRSS	0
ARTKQTARKSTGGKAPRKQ (A R T Kme2 Q T A Rme2a Kme2 S T G G K A P R K Q)	0
PDPAK(Ac)SAPAPKK(Ac)GSK(Ac)KAVT	0
A[Arg(Me2a)]TK(Ac)QTA[Arg(Me2s)][Lys(Me2)]STGGKAPRKQ	0.0188
A[Arg(Me2a)]T[Lys(Me2)]QTARK(Ac)STGGKAPRKQ	0
SGRGK(Ac)QGGKARAK(Ac)AKSRSS	0.0151
A[Arg(Me2s)]T[Lys(Me)]QTA[Arg(Me2a)][Lys(Me)]STGGKAPRKQ	0.00126
ARTKQTARKSTGGKAPRKQ (A R T K Q T A R Kme1 pS T G G K A P R K Q)	0
ARTKQTARKSTGGKAPRKQ (A R T Kac Q T A Rme2s Kme2 S T G G K A P R K Q)	0.00251
A[Arg(Me2a)][pT]K(Ac)QTARKSTGGKAPRKQ	0.0346
ARTKQTARKSTGGKAPRKQ (A Rme2s T Kme2 Q T A Rme2a Kme3 S T G G K A P R K Q)	0
ARTKQTARKSTGGKAPRKQ (A Rme2a T Kme3 Q T A Rme2s Kme2 S T G G K A P R K Q)	0.00269
ARTK(Me)QTARKSTGGKAPRKQ	0
AR(Me2a)TK(Me)QTAR(Me2s)K(Me3)STGGKAPRKQ	0.0113
ARTKQTARKSTGGKAPRKQ (A Rme2a T Kac Q T A Rme2s Kme1 S T G G K A P R K Q)	0
